From the supplement of paper PMC9170038

Tested on: MS2 coat protein
Experiment: apparent KD of MS2 coat protein; designed switch direction (-1 OFF switch, 1 ON switch): -1; higher = weaker reporter binding
Procedure, shortened: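 Apparent KD, taken as the median over clusters for each design, was obtained by curve-fitting normalised cluster fluorescence. Designed RNA switches had been transcribed on Illumina chips by stalled E. coli RNA polymerase and titrated with SNAP-549-labelled MS2 coat protein, doubling from 0.7 or 1.5 nM to 3 µM.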

[1] = input ligand: microRNA oligo, concentration not stated
[2] = Eterna round: R95, input ligand: microRNA oligo, concentration not stated
[3] = Eterna round: R95, input ligand: FMN 200 uM
[4] = Eterna round: R95, input ligand: none

In the case of “CUUAGUUGGUAAGGAUAUCCUACAUUGUUCUGGCCCGGGCAUGCUACAUGAGGAUCACCCAUGUGGGAGAAGGUGCGUCAUCGC [Design 18] (Eterna round: R96, puzzle: Exclusion NG 2)”, the “apparent KD of MS2 coat protein” value (input ligand: FMN 200 uM) was 57.4 nM, the “apparent KD of MS2 coat protein” value [1] was 45.1 nM and the “apparent KD of MS2 coat protein” value (input ligand: none) was 53.6 nM.

In the case of “CUUCACGGAGGAUAUGCGGGCUGCGACAUGAGGAUCACCCAUGUUUAUGGAGCUUGGCAUGCAGAAGGCCGGGAGC [Eternabot (L2) Solution 19] (Eterna round: R97, puzzle: Exclusion 5)”, the “apparent KD of MS2 coat protein” value (input ligand: FMN 200 uM) was 9.81 nM and the “apparent KD of MS2 coat protein” value (input ligand: none) was 10.6 nM.

For “CUUCGACAUGAGGAUCACCCAUGUCAGGAUAUUGUGUAUCGGGUUUUUUACGGUAAGGCAAGAAGGGAUGUGUG [LRO-Excl1-08] (puzzle: Exclusion 1)”, the “apparent KD of MS2 coat protein” value [2] was 29.9 nM.

For “CUUCGUAUAGAGGAUAUAGGUUACUGCGGUAUCCUAGAAGGCUGUACAUGAGGAUCACCCAUGUACUUCAGAUC [Exclusion 6 - B - 13:c] (puzzle: Exclusion 6)”, the “apparent KD of MS2 coat protein” value [2] was 12.6 nM.

With “CUUGUUUAUGUAGGAUAUGCCUGGCGUGCCUUUGCAGAAGGACAUGAGGAUCACCCAUGUAACAUGAGGCUCCACCUUGUCGCC [salish99_ExNG1_r04_117] (Eterna round: R96, puzzle: Exclusion NG 1)” the “apparent KD of MS2 coat protein” value [1] was 111 nM.

With “CUUGUUUAUGUGAGGAUAUACUGUUAGUAAUGUUUGUAGAAGGUACAUGAGGAUCACCCAUGUUUAUUUAUAUU [JR_BME4_Sub043] (puzzle: Brourd's mod of Exclusion 4)” the “apparent KD of MS2 coat protein” value [2] was 18.1 nM.

In the case of “CUUUAGCUAGGAUAUACAUGAGGAUCACCCAUGUUAGCGGUCAAUUGGGCCGCGGGUUGUAGAAGGAGCAUUAA [Aniscerile] (puzzle: Exclusion 3)”, the “apparent KD of MS2 coat protein” value [2] was 28.6 nM.

In the case of “CUUUAGUGAGGAUAUCAGUAGUAAUACAAUAGUAUUACUACUGAGAAGGCACAUGAGGAUCACCCAUGUUUCUC [Mat - Exclusion 4 - Mod of Omei - D78] (puzzle: Exclusion 4)”, the “apparent KD of MS2 coat protein” value [2] was 28 nM.

For “CUUUAGUGAGGAUAUCAGUGGUAAUACAAUAGUAUUACUACUGAGAAGGCACAUGAGGAUCACCCAUGUUCCUC [Mat - Exclusion 4 - Mod of Omei - D84] (puzzle: Exclusion 4)”, the “apparent KD of MS2 coat protein” value [2] was 26.4 nM.

In the case of “CUUUCGUGAGGAUAUCAGUAGUAAAAUAAUAAAAUUACUACUGAGAAGGCACAUGAGGAUCACCCAUGUUCCUC [salish99_ex3_r3_099] (puzzle: Exclusion 4)”, the “apparent KD of MS2 coat protein” value [2] was 24.9 nM.

“CUUUUGUGAGGAUAUCAGGUGUGCUAGCGUACUGGUACAUCUGAGAAGGCACAUGAGGAUCACCCAUGUUUCUA [Mat - Exclusion 4 - Mod of JL - D38] (puzzle: Exclusion 4)” was tested, and the “apparent KD of MS2 coat protein” value [2] was 64 nM.

“CUUUUGUGAGGAUAUCAGUAGUAAAAAAAUAAAUUUACUACUGAGAAGGCACAUGAGGAUCACCCAUGUUCCUC [salish99_ex4_r3_025] (puzzle: Exclusion 4)” was tested, and the “apparent KD of MS2 coat protein” value [2] was 42.9 nM.

For “CUUUUGUGAGGAUAUCAGUAGUAAAAUAAUAAUAUUACUACUGAGAAGGCACAUGAGGAUCACCCAUGUUCCUC [Fiskers Ex 4 Super stable 44 mod 1] (puzzle: Exclusion 4)”, the “apparent KD of MS2 coat protein” value [2] was 39 nM.

For “CUUUUGUGAGGAUAUCAGUAGUAAAUAAAUUAAAUUACUACUGAGAAGGCACAUGAGGAUCACCCAUGUUCCUC [salish99_ex3_r3_081] (puzzle: Exclusion 4)”, the “apparent KD of MS2 coat protein” value [2] was 39.3 nM.

With “CUUUUGUGAGGAUAUCAGUAGUAAAUAUAUAAAAUUACUACUGAGAAGGCACAUGAGGAUCACCCAUGUUCCUC [salish99_ex3_r3_079] (puzzle: Exclusion 4)” the “apparent KD of MS2 coat protein” value [2] was 38.8 nM.

For “CUUUUGUGAGGAUAUCAGUAGUAAUAAAAUAAAAUUACUACUGAGAAGGCACAUGAGGAUCACCCAUGUUCCUC [salish99_ex4_r3_018] (puzzle: Exclusion 4)”, the “apparent KD of MS2 coat protein” value [2] was 37.6 nM.

“CUUUUGUGAGGAUAUCAGUAGUAAUACAAUAGUAUUACUACUGAGAAGGCACAUGAGGAUCACCCAUGUUCCUC [Ex4 344 Omei mod 0] (puzzle: Exclusion 4)” was tested, and the “apparent KD of MS2 coat protein” value [2] was 40.5 nM.

In the case of “CUUUUGUGAGGAUAUCAGUGGUAAUACAAUAGUAUUACUACUGAGAAGGCACAUGAGGAUCACCCAUGUUCCUC [Ex4 344 Omei mod 11] (puzzle: Exclusion 4)”, the “apparent KD of MS2 coat protein” value [2] was 43.1 nM.

With “CUUUUGUGAGGAUAUUAGUAGUAUAUAAUUGGUGAUAUUGCUGAGAAGGCACAUGAGGAUCACCCAUGUACAAC [JR_Ex4_Sub034] (Eterna round: R97, puzzle: Exclusion 4)” the “apparent KD of MS2 coat protein” value (input ligand: FMN 200 uM) was 369 nM and the “apparent KD of MS2 coat protein” value (input ligand: none) was 441 nM.

For “CUUUUGUGAGGAUAUUAGUAGUUAAUAAAUAAAAUUACUACUGAGAAGGCACAUGAGGAUCACCCAUGUUCCUC [salish99_ex4_r3_051] (puzzle: Exclusion 4)”, the “apparent KD of MS2 coat protein” value [2] was 32.8 nM.

In the case of “CUUUUGUGAGGAUAUUGGUAGUAAAUAAAUAAAAUUACUACUGAGAAGGCACAUGAGGAUCACCCAUGUUCCUC [salish99_ex4_r3_070] (puzzle: Exclusion 4)”, the “apparent KD of MS2 coat protein” value [2] was 30.7 nM.

“GAAAACGAUGAGGAUAUAUGAUAUCAAAGCAUCAUAGAAGGCAUCACAUGAGGAUCACCCAUGUGAUCUUCUUG [Mat - Exclusion 6 - JL Mod - D31] (Eterna round: R97, puzzle: Exclusion 6)” was tested, and the “apparent KD of MS2 coat protein” value (input ligand: FMN 200 uM) was 164 nM and the “apparent KD of MS2 coat protein” value (input ligand: none) was 26.6 nM.

With “GAAAACGCAGAGGAUAUUUCAGAUCAAAGCUGCAAAGAAGGCUGCACAUGAGGAUCACCCAUGUGGUCUUAAAA [Mod of Quesina 2 - Jieux - Exclusion 6] (Eterna round: R97, puzzle: Exclusion 6)” the “apparent KD of MS2 coat protein” value (input ligand: FMN 200 uM) was 337 nM and the “apparent KD of MS2 coat protein” value (input ligand: none) was 23.8 nM.

For “GAAAAGAAGCUAGGAUAUGCAUGACGGAUACCCGUGAGCACGUAGCAGACAUGAGGAUCACCCAUGUAGAAGGAGCGAAGAAAU [Veteriat] (Eterna round: R96, puzzle: Exclusion NG 2)”, the “apparent KD of MS2 coat protein” value (input ligand: FMN 200 uM) was 251 nM, the “apparent KD of MS2 coat protein” value [1] was 43.6 nM and the “apparent KD of MS2 coat protein” value (input ligand: none) was 52.8 nM.

With “GAAAAGCUAGGAUAUACAUGAGGAUCACCCAUGUAAGGUCGCUUCUUAUAUAGGGCAUGUAGAAGGAGCAAAGA [Eneriner] (puzzle: Exclusion 3)” the “apparent KD of MS2 coat protein” value [3] was 70.6 nM, the “apparent KD of MS2 coat protein” value [2] was 35.9 nM and the “apparent KD of MS2 coat protein” value [4] was 32.1 nM.

With “GAAAAGGGAGGAUAUACAAGAAGAAAAGAAAAGAAAAGAAAACAUGAGGAUCACCCAUGUAGAAGGCCCAAAAG [Default title] (puzzle: Exclusion 2)” the “apparent KD of MS2 coat protein” value [3] was 22.6 nM, the “apparent KD of MS2 coat protein” value [2] was 18.7 nM and the “apparent KD of MS2 coat protein” value [4] was 23.8 nM.

In the case of “GAAAAGGUAGGAUAUACAAAAAAAAAGGGUAGAAAAAAAACACAUGAGGAUCACCCAUGUAGAAGGACCAAAAG [salish99_ex2_r3_057] (puzzle: Exclusion 2)”, the “apparent KD of MS2 coat protein” value [3] was 83.7 nM, the “apparent KD of MS2 coat protein” value [2] was 37 nM and the “apparent KD of MS2 coat protein” value [4] was 25.9 nM.
